Measurements published in IntAct's records for PubMed 31515488.

B1: Fibronectin type III and SPRY domain-containing protein 2 (Homo sapiens), A1L4K1 (parent)
chain: MEEESGEELGLDRSTPKDFHFYHMDLYDSEDRLHLFPEENTRMRKVVQAEMANESRGAGDGKAQRDLQEEVDELVHLYGLEDDHELGDEFVDENIPRTGVSEYPPYMMKRRDPAREQRDWRLSGEAAEAEDLGFGGWGSAGQCQDLREAYRYTHGRASEEYECYVIPEEEDEEEAADVFCVTCKTPIRAFQKVFDEHKEHEVIPLNEALESAKDEIHKNMYKLEKQIIEMENFANHLEEVFITVEENFGKQEQNFESHYNEILETLAQKYEEKIQALGEKKKEKLEALYGQLVSCGENLDTCKELMETIEEMCHEEKVDFIKDAVAMADRLGKFLKTKTDVEISAQPEFEDQTLDFSDVEQLMGSINTIPAPSAPVINPQVPNSATGSSVRVCWSLYSDDTVESYQLSYRPVQDSSPGTDQAEFTVTVKETYCSVTNLVPNTQYEFWVTAHNRAGPSPSSERAVYMTAPSPPIIKTKEIRSCEEAVLICWESGNLNPVDSYTVELTQAESPEASGVTESVVGIPTCESVVQLQPGRSYIIYVRALNMGGPSVRSEPATVHTIGSYFRLNKDTCHPWLTISEDGLTAVRSERRTPARELSPSDTHFTRCVAVMGNLIPVRGHHYWEVEVDEHLDYRVGVAFADVRKQEDLGANCLSWCMRHTFASSRHKYEFLHNRTTPDIRITVPPKKIGILLDYEHSKLSFFNVDLSQHLYTFSCQLHEFVHPCFSLEKPGCLKVHNGISMPKHVTFY
B2: Ribose-phosphate pyrophosphokinase 1 (Homo sapiens), P60891 (parent)
chain: MPNIKIFSGSSHQDLSQKIADRLGLELGKVVTKKFSNQETCVEIGESVRGEDVYIVQSGCGEINDNLMELLIMINACKIASASRVTAVIPCFPYARQDKKDKSRAPISAKLVANMLSVAGADHIITMDLHASQIQGFFDIPVDNLYAEPAVLKWIRENISEWRNCTIVSPDAGGAKRVTSIADRLNVDFALIHKERKKANEVDRMVLVGDVKDRVAILVDDMADTCGTICHAADKLLSAGATRVYAILTHGIFSGPAISRINNACFEAVVVTNTIPQEDKMKHCSKIQVIDISMILAEAIRRTHNGESVSYLFSHVPL
partner: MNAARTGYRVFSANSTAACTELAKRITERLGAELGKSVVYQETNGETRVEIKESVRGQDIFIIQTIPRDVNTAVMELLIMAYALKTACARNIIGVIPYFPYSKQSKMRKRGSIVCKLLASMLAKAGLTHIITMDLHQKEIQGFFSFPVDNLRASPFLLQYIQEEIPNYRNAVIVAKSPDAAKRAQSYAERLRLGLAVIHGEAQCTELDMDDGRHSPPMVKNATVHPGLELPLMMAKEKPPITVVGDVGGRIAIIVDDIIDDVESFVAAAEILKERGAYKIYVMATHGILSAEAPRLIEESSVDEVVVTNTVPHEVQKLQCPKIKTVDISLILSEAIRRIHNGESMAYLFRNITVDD
B3: Tripartite motif-containing protein 59 (Homo sapiens), Q8IWR1 (parent)
chain: MHNFEEELTCPICYSIFEDPRVLPCSHTFCRNCLENILQASGNFYIWRPLRIPLKCPNCRSITEIAPTGIESLPVNFALRAIIEKYQQEDHPDIVTCPEHYRQPLNVYCLLDKKLVCGHCLTIGQHHGHPIDDLQSAYLKEKDTPQKLLEQLTDTHWTDLTHLIEKLKEQKSHSEKMIQGDKEAVLQYFKELNDTLEQKKKSFLTALCDVGNLINQEYTPQIERMKEIREQQLELMALTISLQEESPLKFLEKVDDVRQHVQILKQRPLPEVQPVEIYPRVSKILKEEWSRTEIGQIKNVLIPKMKISPKRMSCSWPGKDEKEVEFLKILNIVVVTLISVILMSILFFNQHIITFLSEITLIWFSEASLSVYQSLSNSLHKVKNILCHIFYLLKEFVWKIVSH
partner: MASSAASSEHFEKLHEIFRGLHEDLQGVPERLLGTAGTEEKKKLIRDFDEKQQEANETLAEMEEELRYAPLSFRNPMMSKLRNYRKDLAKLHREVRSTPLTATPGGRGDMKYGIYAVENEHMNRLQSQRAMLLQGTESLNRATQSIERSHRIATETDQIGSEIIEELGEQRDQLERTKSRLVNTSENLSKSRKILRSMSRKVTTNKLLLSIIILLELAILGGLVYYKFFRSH
B4: Zinc finger protein 473 (Homo sapiens), Q8WTR7 (parent)
chain: MAEEFVTLKDVGMDFTLGDWEQLGLEQGDTFWDTALDNCQDLFLLDPPRPNLTSHPDGSEDLEPLAGGSPEATSPDVTETKNSPLMEDFFEEGFSQEIIEMLSKDGFWNSNFGEACIEDTWLDSLLGDPESLLRSDIATNGESPTECKSHELKRGLSPVSTVSTGEDSMVHNVSEKTLTPAKSKEYRGEFFSYSDHSQQDSVQEGEKPYQCSECGKSFSGSYRLTQHWITHTREKPTVHQECEQGFDRNASLSVYPKTHTGYKFYVCNEYGTTFSQSTYLWHQKTHTGEKPCKSQDSDHPPSHDTQPGEHQKTHTDSKSYNCNECGKAFTRIFHLTRHQKIHTRKRYECSKCQATFNLRKHLIQHQKTHAAKTTSECQECGKIFRHSSLLIEHQALHAGEEPYKCNERGKSFRHNSTLKIHQRVHSGEKPYKCSECGKAFHRHTHLNEHRRIHTGYRPHKCQECVRSFSRPSHLMRHQAIHTAEKPYSCAECKETFSDNNRLVQHQKMHTVKTPYECQECGERFICGSTLKCHESVHAREKQGFFVSGKILDQNPEQKEKCFKCNKCEKTFSCSKYLTQHERIHTRGVKPFECDQCGKAFGQSTRLIHHQRIHSRVRLYKWGEQGKAISSASLIKLQSFHTKEHPFKCNECGKTFSHSAHLSKHQLIHAGENPFKCSKCDRVFTQRNYLVQHERTHARKKPLVCNECGKTFRQSSCLSKHQRIHSGEKPYVCDYCGKAFGLSAELVRHQRIHTGEKPYVCQECGKAFTQSSCLSIHRRVHTGEKPYRCGECGKAFAQKANLTQHQRIHTGEKPYSCNVCGKAFVLSAHLNQHLRVHTQETLYQCQRCQKAFRCHSSLSRHQRVHNKQQYCL
partner: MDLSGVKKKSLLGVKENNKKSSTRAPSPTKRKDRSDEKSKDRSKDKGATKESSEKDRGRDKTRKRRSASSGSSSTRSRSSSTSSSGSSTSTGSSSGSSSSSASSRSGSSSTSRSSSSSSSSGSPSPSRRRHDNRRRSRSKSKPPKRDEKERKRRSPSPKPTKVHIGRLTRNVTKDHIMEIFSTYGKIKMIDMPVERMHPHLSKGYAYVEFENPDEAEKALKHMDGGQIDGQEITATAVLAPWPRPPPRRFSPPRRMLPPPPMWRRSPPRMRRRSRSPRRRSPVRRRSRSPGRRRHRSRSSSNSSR

Variants of: B1
Settings: with cor1a_human CORO1A

| Variant | effect of a mutation on the interaction |
| --- | --- |
| K333T | with no effect |

Variants of: B2
Settings: with kpra_human PRPSAP1, Q14558

| Variant | effect of a mutation on the interaction |
| --- | --- |
| E43D | with no effect |
| D183H | with no effect |

Variants of: B2
Settings: with kpra_human PRPSAP1, Q14558
Remark: another data set of the same source

| Variant | effect of a mutation on the interaction |
| --- | --- |
| D203H | with no effect |

Variants of: B3
Settings: with vti1b_human VTI1B

| Variant | effect of a mutation on the interaction |
| --- | --- |
| I277V | with no effect |

Variants of: B4
Settings: with rnps1_human RNPS1, Q15287

| Variant | effect of a mutation on the interaction |
| --- | --- |
| Y456H | with no effect |
| T164M | with no effect |
| E309G | with no effect |
| N82S | with no effect |
| S59G | with no effect |
| S535N | with no effect |
